In the supplement of paper PMC9112550, “Optimization of the antimicrobial peptide Bac7 by deep mutational scanning” (BMC Biology, 2022):

What follows are sequences tested on Escherichia coli TOP10 (assay: shrunken log2 fold change of peptide-encoding DNA abundance (4.5 h post-induction vs induction); higher = less antimicrobial activity (less host growth inhibition)). Conditions: time post-induction: 4.5 h; library: site-saturation at positions 5, 18, 19, 20.
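Also: peptides expressed intracellularly from a pBAD plasmid library in pooled LB shake-flask culture, induced with 0.3% L-arabinose, DNA abundance read by NGS, three biological replicates, DESeq2 with apeglm shrinkage.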

Row | Sequence | shrunken log2 fold change
1 | RRIRGRPPRLPRPRPRPCHMPRP | -0.00127
2 | RRIRWRPPRLPRPRPRPVCHPRP | 0.0811
3 | RRIRNRPPRLPRPRPRPFFEPRP | -0.0529
4 | RRIRYRPPRLPRPRPRPNQPPRP | -0.0705
5 | RRIRIRPPRLPRPRPRPNATPRP | -0.12
6 | RRIRWRPPRLPRPRPRPCFWPRP | 0.213
7 | RRIRYRPPRLPRPRPRPSVWPRP | 0.0896
8 | RRIRDRPPRLPRPRPRPAWPPRP | 0.815
9 | RRIRFRPPRLPRPRPRPSFGPRP | -0.112
10 | RRIRMRPPRLPRPRPRPVTCPRP | 0.0862
11 | RRIRIRPPRLPRPRPRPDMLPRP | -0.618
12 | RRIRFRPPRLPRPRPRPHYWPRP | -0.505
13 | RRIRNRPPRLPRPRPRPFGEPRP | -0.0176
14 | RRIRLRPPRLPRPRPRPRGPPRP | 0.865
15 | RRIRNRPPRLPRPRPRPVYTPRP | -0.361
16 | RRIRYRPPRLPRPRPRPMYWPRP | -0.451
17 | RRIRARPPRLPRPRPRPGDIPRP | -0.0868
18 | RRIRWRPPRLPRPRPRPSGYPRP | 0.141
19 | RRIRSRPPRLPRPRPRPDETPRP | -0.0257
20 | RRIRPRPPRLPRPRPRPTIRPRP | 0.172
21 | RRIRARPPRLPRPRPRPENHPRP | -0.102
22 | RRIRNRPPRLPRPRPRPCEMPRP | 0.019
23 | RRIRERPPRLPRPRPRPNKSPRP | -0.369
24 | RRIRSRPPRLPRPRPRPIAHPRP | -0.0401
25 | RRIRARPPRLPRPRPRPLTKPRP | 0.339

Row | Sequence | shrunken log2 fold change
26 | RRIRCRPPRLPRPRPRPQDTPRP | -0.313
27 | RRIRSRPPRLPRPRPRPPGNPRP | -0.0179
28 | RRIRPRPPRLPRPRPRPCGDPRP | 0.078
29 | RRIRMRPPRLPRPRPRPHVLPRP | -0.00145
30 | RRIRRRPPRLPRPRPRPHNHPRP | -0.237
31 | RRIRWRPPRLPRPRPRPMFGPRP | -0.0457
32 | RRIRARPPRLPRPRPRPLITPRP | 0.305
33 | RRIRFRPPRLPRPRPRPFNFPRP | -1.17
34 | RRIRVRPPRLPRPRPRPSKYPRP | -0.783
35 | RRIRARPPRLPRPRPRPHFPPRP | 0.0382
36 | RRIRDRPPRLPRPRPRPDNMPRP | 0.0341
37 | RRIRKRPPRLPRPRPRPCIWPRP | 0.0573
38 | RRIRKRPPRLPRPRPRPKHKPRP | 0.362
39 | RRIRDRPPRLPRPRPRPMWNPRP | 0.108
40 | RRIRNRPPRLPRPRPRPVVNPRP | -0.244
41 | RRIRLRPPRLPRPRPRPFPLPRP | -0.0787
42 | RRIRNRPPRLPRPRPRPSLKPRP | -0.47
43 | RRIRFRPPRLPRPRPRPAFDPRP | 0.128
44 | RRIRIRPPRLPRPRPRPSMSPRP | -0.6
45 | RRIRGRPPRLPRPRPRPTHEPRP | 1.34
46 | RRIRARPPRLPRPRPRPWPQPRP | 0.403
47 | RRIRWRPPRLPRPRPRPSMDPRP | -0.128
48 | RRIRFRPPRLPRPRPRPNLFPRP | -0.0917
49 | RRIRFRPPRLPRPRPRPPAFPRP | 0.112
50 | RRIRLRPPRLPRPRPRPQKVPRP | 0.0989

Row | Sequence | shrunken log2 fold change
51 | RRIRFRPPRLPRPRPRPPKQPRP | 0.226
52 | RRIRTRPPRLPRPRPRPNFYPRP | -0.186
53 | RRIRPRPPRLPRPRPRPSFPPRP | -0.0649
54 | RRIRPRPPRLPRPRPRPWQKPRP | -0.179
55 | RRIRRRPPRLPRPRPRPYPCPRP | 0.253
56 | RRIRNRPPRLPRPRPRPKLLPRP | 0.127
57 | RRIRERPPRLPRPRPRPILHPRP | -0.0255
58 | RRIRNRPPRLPRPRPRPEYCPRP | 0.00705
59 | RRIRCRPPRLPRPRPRPSRRPRP | -0.181
60 | RRIRQRPPRLPRPRPRPPGHPRP | 0.249
61 | RRIRDRPPRLPRPRPRPPASPRP | 0.513
62 | RRIRARPPRLPRPRPRPQMQPRP | 0.508
63 | RRIRERPPRLPRPRPRPHLNPRP | -0.434
64 | RRIRMRPPRLPRPRPRPAFCPRP | 0.455
65 | RRIRYRPPRLPRPRPRPTDVPRP | -0.122
66 | RRIRWRPPRLPRPRPRPMGIPRP | 0.0704
67 | RRIRTRPPRLPRPRPRPAYMPRP | -0.384
68 | RRIRTRPPRLPRPRPRPDILPRP | 0.109
69 | RRIRCRPPRLPRPRPRPKVSPRP | 0.0213
70 | RRIRGRPPRLPRPRPRPYKVPRP | -0.0404
71 | RRIRSRPPRLPRPRPRPVVYPRP | -0.0697
72 | RRIRFRPPRLPRPRPRPDVRPRP | 0.0165
73 | RRIRERPPRLPRPRPRPRDVPRP | 0.0772
74 | RRIRPRPPRLPRPRPRPEGWPRP | 1.82
75 | RRIRVRPPRLPRPRPRPYDQPRP | -0.192

Row | Sequence | shrunken log2 fold change
76 | RRIRLRPPRLPRPRPRPNQPPRP | 0.0224
77 | RRIRHRPPRLPRPRPRPSLWPRP | 0.257
78 | RRIRERPPRLPRPRPRPCSMPRP | -0.0884
79 | RRIRCRPPRLPRPRPRPICNPRP | -0.579
80 | RRIRRRPPRLPRPRPRPNYVPRP | -0.338
81 | RRIRDRPPRLPRPRPRPHGRPRP | 0.0088
82 | RRIRKRPPRLPRPRPRPFTQPRP | -0.332
83 | RRIRWRPPRLPRPRPRPSHCPRP | -0.689
84 | RRIRCRPPRLPRPRPRPATNPRP | 0.213
85 | RRIRRRPPRLPRPRPRPLVCPRP | 0.177
86 | RRIRARPPRLPRPRPRPTFIPRP | -0.18
87 | RRIRQRPPRLPRPRPRPWYEPRP | 0.0185
88 | RRIRNRPPRLPRPRPRPECQPRP | 0.00386
89 | RRIRTRPPRLPRPRPRPQNEPRP | -0.276
90 | RRIRWRPPRLPRPRPRPIVNPRP | -0.0307
91 | RRIRNRPPRLPRPRPRPKFRPRP | 0.00344
92 | RRIRIRPPRLPRPRPRPSGLPRP | 0.0161
93 | RRIRHRPPRLPRPRPRPTYSPRP | -0.489
94 | RRIRPRPPRLPRPRPRPPQMPRP | 0.531
95 | RRIRNRPPRLPRPRPRPSKAPRP | -0.0014
96 | RRIRARPPRLPRPRPRPTYKPRP | -0.23
97 | RRIRERPPRLPRPRPRPWFFPRP | -0.358
98 | RRIRWRPPRLPRPRPRPFFFPRP | 0.253
99 | RRIRMRPPRLPRPRPRPVNCPRP | 0.181
100 | RRIRHRPPRLPRPRPRPKWGPRP | 0.177

Row | Sequence | shrunken log2 fold change
101 | RRIRCRPPRLPRPRPRPVKDPRP | -0.305
102 | RRIRDRPPRLPRPRPRPGSMPRP | -0.403
103 | RRIRPRPPRLPRPRPRPAPQPRP | 0.461
104 | RRIRKRPPRLPRPRPRPIFHPRP | 0.381
105 | RRIRCRPPRLPRPRPRPVRAPRP | 0.486
106 | RRIRMRPPRLPRPRPRPMWKPRP | -0.00141
107 | RRIRWRPPRLPRPRPRPRCQPRP | -0.0289
108 | RRIRSRPPRLPRPRPRPQDHPRP | -0.794
109 | RRIRDRPPRLPRPRPRPPRTPRP | 0.389
110 | RRIRFRPPRLPRPRPRPWSLPRP | -0.529
111 | RRIRNRPPRLPRPRPRPWYNPRP | -0.00192
112 | RRIRKRPPRLPRPRPRPAVKPRP | -0.104
113 | RRIRSRPPRLPRPRPRPDCHPRP | -0.0994
114 | RRIRFRPPRLPRPRPRPWWGPRP | -0.00459
115 | RRIRYRPPRLPRPRPRPMEDPRP | -0.0944
116 | RRIRIRPPRLPRPRPRPNKSPRP | -0.919
117 | RRIRHRPPRLPRPRPRPTFSPRP | -0.22
118 | RRIRCRPPRLPRPRPRPFLAPRP | 0.0788
119 | RRIRRRPPRLPRPRPRPEYGPRP | -0.0277
120 | RRIRSRPPRLPRPRPRPFNKPRP | -0.81
121 | RRIRHRPPRLPRPRPRPGEAPRP | 0.051
122 | RRIRARPPRLPRPRPRPQPRPRP | 0.721
123 | RRIRARPPRLPRPRPRPKGVPRP | 0.15
124 | RRIRVRPPRLPRPRPRPYELPRP | -0.401
125 | RRIRSRPPRLPRPRPRPWQNPRP | -0.194
